From patent publication US20250269046A1, “CELLULAR UPTAKE OF LARGE BIOMOLECULES ENABLED BY CELL-SURFACE-REACTIVE CELL-PENETRATING PEPTIDE ADDITIVES” (FORSCHUNGSVERBUND BERLIN E.V., priority 2021, published 2025)

What was measured:
[1] = molecular target: Lifeact-mVenus (GFP mutant, expressed in transfected HeLa CCL-2 cells); assay: confocal microscopy of live HeLa CCL-2 cells transfected with Lifeact-mVenus after delivery of 500 nM antibody with TNB-R10; colocalization of antibody and mVenus signals
[2] = molecular target: endogenous mitochondrial receptor TOMM20 (in HeLa CCL-2 cells) (UniProt Q15388); assay: cell-based or functional assay
Sequence of endogenous mitochondrial receptor TOMM20 (in HeLa CCL-2 cells) (Q15388 whole entry): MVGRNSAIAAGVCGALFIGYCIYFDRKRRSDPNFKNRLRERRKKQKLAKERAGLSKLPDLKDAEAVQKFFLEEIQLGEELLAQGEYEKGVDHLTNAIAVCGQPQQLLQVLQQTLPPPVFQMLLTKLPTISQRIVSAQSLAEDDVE

pearson correlation coefficient (PCC) of colocalization [1]	pearson correlation coefficient (PCC) of the colocalization of the delivered antibody with the mitochondrial marker MitoTracker Red CMXRos [2]	Substance
0.8		Alexa Fluor 594 anti-GFP Antibody, Clone 1GFP63
	0.58	Anti-Tom20/Tomm20, clone 2F8.1 (antibody)
